Data: patent US20190338048A1
Like-named read-outs stand apart in the source and are kept apart here.

Legend:
[1] = molecular target: CAT-2200 Fab heavy chain L143D_K145T; test: LCCA
[2] = molecular target: CAT-2200 Fab heavy chain S186K; test: LCCA
[3] = molecular target: CAT-2200 Fab heavy chain L143A_Q179K; test: LCCA
[4] = molecular target: CAT-2200 Fab heavy chain L143A_Q179K; test: LCCA; remark: listed apart in the source
[5] = molecular target: CAT-2200 Fab heavy chain Q179K; test: LCCA
[6] = molecular target: CAT-2200 lambda light chain K129T_V133D_L135S; test: LCCA, SPR tag read-out
[7] = molecular target: Pertuzumab kappa light chain S131K_L135K; test: LCCA, SPR tag read-out
[8] = molecular target: Pertuzumab kappa light chain S121K_S131K_L135K; test: LCCA, SPR tag read-out
[9] = molecular target: Pertuzumab kappa light chain S131R_V133G_S176R; test: LCCA, SPR
[10] = molecular target: Pertuzumab kappa light chain S131K_V133G_S176R; test: LCCA, SPR
[11] = molecular target: CAT-2200 lambda light chain K129T_V133D; test: LCCA, SPR
[12] = molecular target: CAT-2200 lambda light chain K129T_V133D_Y178T; test: LCCA, SPR tag read-out
[13] = molecular target: Pertuzumab kappa light chain S131R_V133G_L135W_S176R; test: LCCA, SPR tag read-out
[14] = molecular target: Pertuzumab kappa light chain S131R_V133G_S176R; test: LCCA, SPR tag read-out
[15] = molecular target: CAT-2200 lambda light chain K129T_T131D_V133D; test: LCCA, SPR tag read-out
[16] = molecular target: Pertuzumab kappa light chain S131K_V133G_S176R; test: LCCA, SPR tag read-out
[17] = molecular target: CAT-2200 lambda light chain V133D_Y178T; test: LCCA, SPR tag read-out
[18] = molecular target: Pertuzumab kappa light chain S131R_V133G_S176R; test: LCCA, SPR; remark: listed apart in the source
[19] = molecular target: Pertuzumab kappa light chain S131K_V133G_S176R; test: LCCA, SPR; remark: listed apart in the source
[20] = molecular target: CAT-2200 lambda light chain K129T_V133D; test: LCCA, SPR; remark: listed apart in the source
[21] = molecular target: Pertuzumab kappa light chain S131K_V133G_S176R; test: LCCA, SPR tag read-out; remark: listed apart in the source
[22] = molecular target: Pertuzumab kappa light chain S131R_V133G_L135W_S176R; test: LCCA, SPR tag read-out; remark: listed apart in the source
[23] = molecular target: Pertuzumab kappa light chain S131R_V133G_L135W_S176R; test: LCCA, SPR tag read-out; remark: listed apart in the source
[24] = molecular target: Pertuzumab kappa light chain S121K_S131R_V133G_S176R; test: LCCA, SPR tag read-out
[25] = molecular target: CAT-2200 lambda light chain S122D_V133D_Y178T; test: LCCA, SPR tag read-out
[26] = molecular target: CAT-2200 lambda light chain S122D_K129T_V133D_Y178T; test: LCCA, SPR tag read-out
[27] = molecular target: Pertuzumab kappa light chain S121K_S131R_V133G_S176R; test: LCCA, SPR tag read-out; remark: listed apart in the source
[28] = molecular target: CAT-2200 lambda light chain S122D_K129T_V133D; test: LCCA, SPR tag read-out
[29] = molecular target: Pertuzumab kappa light chain S121K_S131R_V133G_S176R; test: LCCA, SPR tag read-out; remark: listed apart in the source
[30] = molecular target: Pertuzumab kappa light chain Q124R_T178R; test: LCCA, SPR tag read-out
[31] = molecular target: Pertuzumab kappa light chain Q124R_T178R; test: LCCA, SPR tag read-out; remark: listed apart in the source
[32] = molecular target: Pertuzumab kappa light chain Q124R_L135W_T178R; test: LCCA, SPR tag read-out
[33] = molecular target: Pertuzumab kappa light chain Q124R_L135W_Q160K_T178R; test: LCCA
[34] = molecular target: Pertuzumab kappa light chain Q124R_Q160R_T178R; test: LCCA, SPR tag read-out
[35] = molecular target: Pertuzumab kappa light chain Q124R_L135W_Q160K_T178R; test: LCCA, SPR tag read-out
[36] = molecular target: Pertuzumab kappa light chain Q124R_T178R; test: LCCA, SPR tag read-out; remark: listed apart in the source
[37] = molecular target: Pertuzumab kappa light chain Q124R_L135W_T178R; test: LCCA, SPR tag read-out; remark: listed apart in the source
[38] = molecular target: Pertuzumab kappa light chain Q124R_T178R; test: LCCA, SPR tag read-out; remark: listed apart in the source
[39] = molecular target: Pertuzumab kappa light chain Q124R_Q160R_T178R; test: LCCA, SPR tag read-out; remark: listed apart in the source
[40] = molecular target: Pertuzumab kappa light chain Q124R_T178R; test: LCCA, SPR tag read-out; remark: listed apart in the source
[41] = molecular target: Pertuzumab kappa light chain Q124R_L135W_T178R; test: LCCA, SPR tag read-out; remark: listed apart in the source
[42] = molecular target: Pertuzumab kappa light chain Q124K_L135A_T178R; test: LCCA
[43] = molecular target: Pertuzumab kappa light chain Q124R_L135A_Q160K_T178R; test: LCCA
[44] = molecular target: CAT-2200 lambda light chain T116F_K129T_V133D_S176F; test: LCCA, SPR tag read-out
[45] = molecular target: Pertuzumab kappa light chain Q124R_L135A_T178R; test: LCCA, SPR tag read-out
[46] = molecular target: CAT-2200 lambda light chain S122D_E124Q_T131R; test: LCCA, SPR tag read-out
[47] = molecular target: Pertuzumab kappa light chain S121K_S131D_V133G_T178F; test: LCCA, SPR tag read-out
[48] = molecular target: Pertuzumab kappa light chain S121K_V133I_S176D_T178E; test: LCCA, SPR tag read-out
[49] = molecular target: Pertuzumab kappa light chain S121K_S176E_T178E; test: LCCA
[50] = molecular target: CAT-2200 lambda light chain S122D_E124Q_T131R; test: LCCA, SPR tag read-out; remark: listed apart in the source
[51] = molecular target: Pertuzumab kappa light chain V133I_S176E_T178E (L2), N-terminal HA tag; test: LCCA, SPR of light chain tags
[52] = molecular target: Pertuzumab kappa light chain V133L_S176D_T178E (L2), N-terminal HA tag; test: LCCA, SPR of light chain tags
[53] = molecular target: CAT-2200 lambda light chain S176K_Y178K (L1), N-terminal FLAG tag; test: LCCA, SPR of light chain tags
[54] = molecular target: CAT-2200 lambda light chain S176K_Y178K (L1), N-terminal FLAG tag; test: LCCA, SPR of light chain tags; remark: listed apart in the source
[55] = molecular target: Pertuzumab kappa light chain V133L_S176D_T178E (L2), N-terminal HA tag; test: LCCA, SPR of light chain tags; remark: listed apart in the source
[56] = molecular target: Pertuzumab kappa light chain V133I_S176D_T178E (L2), N-terminal HA tag; test: LCCA, SPR of light chain tags
[57] = molecular target: Pertuzumab kappa light chain V133I_S176E_T178E (L2), N-terminal HA tag; test: LCCA, SPR of light chain tags; remark: listed apart in the source

CAT-2200 lambda light chain E124Q_T131K_V133S
H1L1:H1L2 median scalar value (ln(H1L1:H1L2)) [1]: 0.54

CAT-2200 lambda light chain K129T_V133D_Y178T
H1L1:H1L2 median scalar value (ln(H1L1:H1L2)) [2]: 0.06

CAT-2200 lambda light chain K129T_V133W_S180E
H1L1:H1L2 median scalar value (ln(H1L1:H1L2)) [3]: 1.51
H1L1:H1L2 median scalar value (ln(H1L1:H1L2)) [4]: 0.88

CAT-2200 lambda light chain K129T_Y178E_S180E
H1L1:H1L2 median scalar value (ln(H1L1:H1L2)) [5]: 0.89

Pertuzumab Fab heavy chain L124E_A139I_K145T_V190I
H2L2:H2L1 normalized median ratio [6]: 39%
H2L2:H2L1 median scalar value [7]: 0.48 ln(ratio)
H2L2:H2L1 normalized median ratio [7]: 61%

Pertuzumab Fab heavy chain L124E_A139I_K145T_V190I_K228D
H2L2:H2L1 median scalar value [8]: 0.25 ln(ratio)

Pertuzumab Fab heavy chain L124E_K145T_Q179E
H2L2:H2L1 normalized median scalar value ln(r1/f1) [9]: 2.72
H2L2:H2L1 normalized median scalar value ln(r1/f1) [10]: 2.18
H2L2:H2L1 normalized median ratio [11]: 4%
H2L2:H2L1 normalized median ratio [12]: 16%
H2L2:H2L1 median scalar value [13]: 1.71 ln(ratio)
H2L2:H2L1 median scalar value [14]: 4.11 ln(ratio)
H2L2:H2L1 normalized median ratio [15]: 4%
H2L2:H2L1 median scalar value [16]: 3.26 ln(ratio)
H2L2:H2L1 normalized median ratio [17]: 16%
H2L2:H2L1 normalized median scalar value ln(r1/f1) [18]: 3.12
H2L2:H2L1 normalized median scalar value ln(r1/f1) [19]: 2.38
H2L2:H2L1 normalized median ratio [20]: 8%
H2L2:H2L1 median scalar value [21]: 3.71 ln(ratio)
H2L2:H2L1 median scalar value [22]: 1.7 ln(ratio)
H2L2:H2L1 median scalar value [23]: 2.31 ln(ratio)

Pertuzumab Fab heavy chain L124E_K145T_Q179E_K228D
H2L2:H2L1 median scalar value [24]: 2.42 ln(ratio)
H2L2:H2L1 normalized median ratio [24]: 92%
H2L2:H2L1 normalized median ratio [25]: 14%
H2L2:H2L1 normalized median ratio [26]: 8%
H2L2:H2L1 median scalar value [27]: 1.9 ln(ratio)
H2L2:H2L1 normalized median ratio [27]: 86%
H2L2:H2L1 normalized median ratio [28]: 5%
H2L2:H2L1 median scalar value [29]: 3.08 ln(ratio)
H2L2:H2L1 normalized median ratio [29]: 95%

Pertuzumab Fab heavy chain L143E_K145T_Q179E
H2L2:H2L1 median scalar value [30]: 3.1 ln(ratio)
H2L2:H2L1 median scalar value [31]: 3.01 ln(ratio)
H2L2:H2L1 median scalar value [32]: 2.54 ln(ratio)
H2L2:H2L1 median scalar value [33]: 0.77 ln
H2L2:H2L1 median scalar value [34]: 2.79 ln(ratio)
H2L2:H2L1 median scalar value [35]: 2.02 ln(ratio)
H2L2:H2L1 median scalar value [36]: 3.52 ln(ratio)
H2L2:H2L1 median scalar value [37]: 2.64 ln(ratio)
H2L2:H2L1 median scalar value [38]: 3.63 ln(ratio)
H2L2:H2L1 median scalar value [39]: 2.58 ln(ratio)
H2L2:H2L1 median scalar value [40]: 2.74 ln(ratio)
H2L2:H2L1 median scalar value [41]: 2.68 ln(ratio)

Pertuzumab Fab heavy chain L143E_K145T_Q179E_V190F
H2L2:H2L1 median scalar value [42]: -0.51 ln
H2L2:H2L1 median scalar value [43]: -0.29 ln
H2L2:H2L1 normalized median ratio [44]: 27%
H2L2:H2L1 median scalar value [45]: 0.99 ln(ratio)
H2L2:H2L1 normalized median ratio [45]: 73%

Pertuzumab Fab heavy chain S188K_K228D
H2L2:H2L1 normalized median ratio [46]: 15%
H2L2:H2L1 median scalar value [47]: -0.08 ln(ratio)
H2L2:H2L1 normalized median ratio [47]: 47%
H2L2:H2L1 median scalar value [48]: 1.74 ln(ratio)
H2L2:H2L1 normalized median ratio [48]: 85%
H2L2:H2L1 median scalar value [49]: 2.83 ln
H2L2:H2L1 normalized median ratio [50]: 53%

Pertuzumab Fab heavy chain V177I_S188K (H2), ABD2-His6 tagged
H2L2:H2L1 normalized median scalar value ln(r1/f1) [51]: 2.79
H2L2:H2L1 normalized median scalar value ln(r1/f1) [52]: 0.55
H2L2:H2L1 normalized median ratio [53]: 9%
H2L2:H2L1 normalized median ratio [54]: 9%
H2L2:H2L1 normalized median ratio [55]: 91%
H2L2:H2L1 normalized median scalar value ln(r1/f1) [55]: 2.37
H2L2:H2L1 normalized median ratio [56]: 91%
H2L2:H2L1 normalized median scalar value ln(r1/f1) [56]: 2.34
H2L2:H2L1 normalized median scalar value ln(r1/f1) [57]: 2.83
